According to the Immune Epitope Database (IEDB):

How the values were obtained:
Assay in all cases: IEDB peptide-MHC binding, purified MHC/competitive/radioactivity; filed as Kd, often an IC50 or EC50 that approximates it; ≥ and ≤ were set here for values at or beyond the usual limits of such assays
HLA-A*03:01 = molecular target: HLA-A*03:01
HLA-A*11:01 = molecular target: HLA-A*11:01
HLA-A*31:01 = molecular target: HLA-A*31:01
HLA-A*33:01 = molecular target: HLA-A*33:01
HLA-A*68:01 = molecular target: HLA-A*68:01
HLA-A*02:03 = molecular target: HLA-A*02:03
HLA-A*02:06 = conditions: source organism: Dengue virus 1 Brazil/97-11/1997
[1] = source organism: Vaccinia virus WR
[2] = source organism: Vaccinia virus Copenhagen
[3] = source organism: Mammarenavirus machupoense
[4] = source organism: Mammarenavirus juninense
[5] = source organism: Lassa virus Josiah
[6] = source organism: SARS coronavirus Tor2

With SIGNVTRLFY the Kd (HLA-A*03:01; [1]) was 2.94 nM, the Kd (HLA-A*11:01; [1]) was 25 nM and the Kd (HLA-A*31:01; [1]) was 3050 nM. For the same sequence, the Kd (HLA-A*33:01; [1]) was 17400 nM and the Kd (HLA-A*68:01; [1]) was 2050 nM.
In the case of SIILANERY, the Kd (HLA-A*03:01; [1]) is reported as no less than 78000 nM, the Kd (HLA-A*11:01; [1]) is reported as 233 nM and the Kd (HLA-A*31:01; [1]) is reported as 19900 nM. It also gave a Kd (HLA-A*33:01; [1]) of no less than 77700 nM and a Kd (HLA-A*68:01; [1]) of 607 nM.
For SLAIKNYYRK, the Kd (HLA-A*03:01; [2]) was 35.3 nM, the Kd (HLA-A*11:01; [2]) was 10.6 nM and the Kd (HLA-A*31:01; [2]) was 297 nM. It also gave a Kd (HLA-A*33:01; [2]) of 1180 nM and a Kd (HLA-A*68:01; [2]) of 1770 nM.
Work on SMGFKVTTR yielded a Kd (HLA-A*03:01; [1]) of 5010 nM, a Kd (HLA-A*11:01; [1]) of 4730 nM and a Kd (HLA-A*31:01; [1]) of 1.94 nM. For the same sequence, the Kd (HLA-A*33:01; [1]) was 166 nM and the Kd (HLA-A*68:01; [1]) was 1270 nM.
SMTYLYNKY showed a Kd (HLA-A*03:01; [1]) of 9930 nM, a Kd (HLA-A*11:01; [1]) of 1660 nM and a Kd (HLA-A*31:01; [1]) of no less than 25000 nM. It also gave a Kd (HLA-A*33:01; [1]) of 8750 nM and a Kd (HLA-A*68:01; [1]) of 1750 nM.
Sequence SSFDYCGVNH has a Kd (HLA-A*03:01; [3]) of 8190 nM, a Kd (HLA-A*11:01; [3]) of 4840 nM and a Kd (HLA-A*31:01; [3]) of 1970 nM. For the same sequence, the Kd (HLA-A*33:01; [3]) was 6430 nM and the Kd (HLA-A*68:01; [3]) was 492 nM.
With STELIRRVR the Kd (HLA-A*03:01; [1]) was 13.9 nM, the Kd (HLA-A*11:01; [1]) was 127 nM and the Kd (HLA-A*31:01; [1]) was 91.8 nM. The Kd (HLA-A*33:01; [1]) was 1320 nM and the Kd (HLA-A*68:01; [1]) was 57.1 nM.
For SWPVQCPLDH, the Kd (HLA-A*03:01; [4]) was no less than 70000 nM, the Kd (HLA-A*11:01; [4]) was no less than 69700 nM and the Kd (HLA-A*31:01; [4]) was 9.74 nM. For the same sequence, the Kd (HLA-A*33:01; [4]) was 19400 nM and the Kd (HLA-A*68:01; [4]) was no less than 70100 nM.
Work on TCNDHYLCLR yielded a Kd (HLA-A*03:01; [3]) of no less than 33300 nM, a Kd (HLA-A*11:01; [3]) of no less than 61800 nM and a Kd (HLA-A*31:01; [3]) of 123 nM. The Kd (HLA-A*33:01; [3]) was 718 nM and the Kd (HLA-A*68:01; [3]) was 2210 nM.
Sequence TCQGSDDIR has a Kd (HLA-A*03:01; [5]) of no less than 78000 nM, a Kd (HLA-A*11:01; [5]) of no less than 77900 nM and a Kd (HLA-A*31:01; [5]) of no less than 22300 nM. It also gave a Kd (HLA-A*33:01; [5]) of 12100 nM and a Kd (HLA-A*68:01; [5]) of 14500 nM.
Work on TFVNFNSVK yielded a Kd (HLA-A*03:01; [1]) of 784 nM, a Kd (HLA-A*11:01; [1]) of 21.4 nM and a Kd (HLA-A*31:01; [1]) of 103 nM. For the same sequence, the Kd (HLA-A*33:01; [1]) was 197 nM and the Kd (HLA-A*68:01; [1]) was 12.5 nM.
TIDKSSPLY showed a Kd (HLA-A*03:01; [1]) of 65.2 nM, a Kd (HLA-A*11:01; [1]) of 81.7 nM and a Kd (HLA-A*31:01; [1]) of no less than 53700 nM. For the same sequence, the Kd (HLA-A*33:01; [1]) was no less than 77700 nM and the Kd (HLA-A*68:01; [1]) was 206 nM.
TIQRFSSLRR gave a Kd (HLA-A*03:01; [1]) of 78.6 nM, a Kd (HLA-A*11:01; [1]) of 1.88 nM and a Kd (HLA-A*31:01; [1]) of 1.56 nM. For the same sequence, the Kd (HLA-A*33:01; [1]) was 9.81 nM and the Kd (HLA-A*68:01; [1]) was 7.24 nM.
With TLATGPITTL the Kd (HLA-A*02:03; source organism: Dengue virus 3 Martinique/1243/1999) was 12 nM.
TLYAVATTIL gave a Kd (HLA-A*02:03; source organism: Dengue virus 4 Philippines/H241/1956) of 101 nM.
Work on TMHANYIFWR yielded a Kd (HLA-A*03:01; [6]) of 1260 nM, a Kd (HLA-A*11:01; [6]) of 125 nM and a Kd (HLA-A*31:01; [6]) of 11.3 nM. It also gave a Kd (HLA-A*33:01; [6]) of 121 nM and a Kd (HLA-A*68:01; [6]) of 35.5 nM.
For TQMRTPLHK, the Kd (HLA-A*03:01; [1]) was 1180 nM, the Kd (HLA-A*11:01; [1]) was 78 nM and the Kd (HLA-A*31:01; [1]) was 3520 nM. It also gave a Kd (HLA-A*33:01; [1]) of no less than 77700 nM and a Kd (HLA-A*68:01; [1]) of 8960 nM.
TQNVLYENQK showed a Kd (HLA-A*03:01; [6]) of no less than 29200 nM, a Kd (HLA-A*11:01; [6]) of 523 nM and a Kd (HLA-A*31:01; [6]) of 13300 nM. For the same sequence, the Kd (HLA-A*33:01; [6]) was no less than 70000 nM and the Kd (HLA-A*68:01; [6]) was 3090 nM.
TSASEIKDR gave a Kd (HLA-A*03:01; [1]) of no less than 78000 nM, a Kd (HLA-A*11:01; [1]) of 1680 nM and a Kd (HLA-A*31:01; [1]) of 18900 nM. The Kd (HLA-A*33:01; [1]) was 1340 nM and the Kd (HLA-A*68:01; [1]) was 9.93 nM.
With TVYVYSRVK the Kd (HLA-A*03:01; [6]) was 67.5 nM, the Kd (HLA-A*11:01; [6]) was 145 nM and the Kd (HLA-A*31:01; [6]) was 769 nM. It also gave a Kd (HLA-A*33:01; [6]) of 1070 nM and a Kd (HLA-A*68:01; [6]) of 919 nM.
VFIHMVRCCK was tested, and the Kd (HLA-A*03:01; [1]) was no less than 20900 nM, the Kd (HLA-A*11:01; [1]) was 4820 nM and the Kd (HLA-A*31:01; [1]) was 43.9 nM. The Kd (HLA-A*33:01; [1]) was 212 nM and the Kd (HLA-A*68:01; [1]) was no less than 24500 nM.
With VLAYMLFTK the Kd (HLA-A*03:01; [6]) was 0.179 nM, the Kd (HLA-A*11:01; [6]) was 0.894 nM and the Kd (HLA-A*31:01; [6]) was 223 nM. For the same sequence, the Kd (HLA-A*33:01; [6]) was 1890 nM and the Kd (HLA-A*68:01; [6]) was 7.96 nM.
Work on VLSAATETY yielded a Kd (HLA-A*03:01; [1]) of 3010 nM, a Kd (HLA-A*11:01; [1]) of 6460 nM and a Kd (HLA-A*31:01; [1]) of no less than 69700 nM. For the same sequence, the Kd (HLA-A*33:01; [1]) was no less than 77700 nM and the Kd (HLA-A*68:01; [1]) was 1470 nM.
VSKHWELTNK was tested, and the Kd (HLA-A*03:01; [1]) was 680 nM, the Kd (HLA-A*11:01; [1]) was 157 nM and the Kd (HLA-A*31:01; [1]) was 1780 nM. The Kd (HLA-A*33:01; [1]) was 11900 nM and the Kd (HLA-A*68:01; [1]) was 1520 nM.
Sequence VVMAYVGIK has a Kd (HLA-A*03:01; [1]) of 18.6 nM, a Kd (HLA-A*11:01; [1]) of 1.24 nM and a Kd (HLA-A*31:01; [1]) of 2460 nM. It also gave a Kd (HLA-A*33:01; [1]) of no less than 23200 nM and a Kd (HLA-A*68:01; [1]) of 19 nM.
VVMHINSPFK showed a Kd (HLA-A*03:01; [1]) of 8.41 nM, a Kd (HLA-A*11:01; [1]) of 2.56 nM and a Kd (HLA-A*31:01; [1]) of 123 nM. For the same sequence, the Kd (HLA-A*33:01; [1]) was 11600 nM and the Kd (HLA-A*68:01; [1]) was 37.4 nM.
WALRHPGFTV was tested, and the Kd (HLA-A*02:06) was 83.7 nM.
Sequence WIMLLQFAY has a Kd (HLA-A*03:01; [6]) of 4090 nM, a Kd (HLA-A*11:01; [6]) of 14100 nM and a Kd (HLA-A*31:01; [6]) of 5330 nM. For the same sequence, the Kd (HLA-A*33:01; [6]) was no less than 77700 nM and the Kd (HLA-A*68:01; [6]) was no less than 23000 nM.
YFVCWHTHNY was tested, and the Kd (HLA-A*03:01; [6]) was 1520 nM, the Kd (HLA-A*11:01; [6]) was 8120 nM and the Kd (HLA-A*31:01; [6]) was 2330 nM. It also gave a Kd (HLA-A*33:01; [6]) of 1820 nM and a Kd (HLA-A*68:01; [6]) of 4860 nM.
Sequence YILQLIRHGR has a Kd (HLA-A*03:01; [1]) of 11200 nM, a Kd (HLA-A*11:01; [1]) of no less than 27400 nM and a Kd (HLA-A*31:01; [1]) of 40.2 nM. It also gave a Kd (HLA-A*33:01; [1]) of 256 nM and a Kd (HLA-A*68:01; [1]) of 10.3 nM.
For YSFKLILAEY, the Kd (HLA-A*03:01; [1]) was 8180 nM, the Kd (HLA-A*11:01; [1]) was 7290 nM and the Kd (HLA-A*31:01; [1]) was 658 nM. The Kd (HLA-A*33:01; [1]) was 7960 nM and the Kd (HLA-A*68:01; [1]) was 3670 nM.
For YSKKFQESFY, the Kd (HLA-A*03:01; [1]) was 2720 nM, the Kd (HLA-A*11:01; [1]) was 7410 nM and the Kd (HLA-A*31:01; [1]) was 14400 nM. For the same sequence, the Kd (HLA-A*33:01; [1]) was no less than 70000 nM and the Kd (HLA-A*68:01; [1]) was 1780 nM.
YVGIKLGDK showed a Kd (HLA-A*03:01; [1]) of 987 nM, a Kd (HLA-A*11:01; [1]) of 650 nM and a Kd (HLA-A*31:01; [1]) of no less than 24900 nM. For the same sequence, the Kd (HLA-A*33:01; [1]) was no less than 50600 nM and the Kd (HLA-A*68:01; [1]) was 2090 nM.
In the case of YVKALTKNY, the Kd (HLA-A*03:01; [1]) is reported as 1590 nM, the Kd (HLA-A*11:01; [1]) is reported as 12700 nM and the Kd (HLA-A*31:01; [1]) is reported as no less than 77900 nM. The Kd (HLA-A*33:01; [1]) was no less than 77700 nM and the Kd (HLA-A*68:01; [1]) was 1800 nM.
